According to patent US20220281976A1 (Alector, published 2022):
Residue numbers refer to the chain shown, from its start.

T1: mouse CD33 Fc fusion protein (mouse, UniProt Q63994 18-240, limits assumed)
T1 construct: also called mCD33-Fc
T1 sequence: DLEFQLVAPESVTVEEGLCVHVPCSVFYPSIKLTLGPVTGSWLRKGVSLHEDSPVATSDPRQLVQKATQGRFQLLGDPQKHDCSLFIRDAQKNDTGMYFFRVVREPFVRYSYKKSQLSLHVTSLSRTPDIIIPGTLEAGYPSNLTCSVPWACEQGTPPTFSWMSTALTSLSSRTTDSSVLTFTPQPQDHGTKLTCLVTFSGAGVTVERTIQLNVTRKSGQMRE

B1: C-37 (antibody, V domains shown)
VH: QLQLQESGPGLVKPSETLSLTCTVSGGSISSSSYYWGWIRQPPGKGLEWIGSISYSGSTYYNPSLKSRVTISVDTSKNQFSLKLSSVTAADTAVYYCAREHRAADAGSNVWGQGTMVTVSS
VL: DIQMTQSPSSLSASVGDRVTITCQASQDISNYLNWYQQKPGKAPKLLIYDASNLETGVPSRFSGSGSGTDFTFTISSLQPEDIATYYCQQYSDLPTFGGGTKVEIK
notes: human IgG1
B2: C-67 (antibody, V domains shown)
VH: B1 VH with S54Y, H101V, R102S, A103G, A104T, D105R, A106H, S108M, N109D, M116T
VL: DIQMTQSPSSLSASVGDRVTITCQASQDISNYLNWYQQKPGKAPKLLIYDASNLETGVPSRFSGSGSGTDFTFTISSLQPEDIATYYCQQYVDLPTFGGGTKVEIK
notes: human IgG1
B3: C-38 (antibody, V domains shown)
VH: QLQLQESGPGLVKPSETLSLTCTVSGGSISSSSYYWGWIRQPPGKGLEWIGSIYYSGSTYYNPSLKSRVTISVDTSKNQFSLKLSSVTAADTAVYYCAREATAAADHPGMDVWGQGTTVTVSS
VL: DIQMTQSPSSLSASVGDRVTITCQASQDITNYLNWYQQKPGKAPKLLIYDASNLETGVPSRFSGSRSGTDFTFTISSLQPEDIATYYCQQYHDFPTFGGGTKVEIK
notes: human IgG1
B4: C-1 (antibody, V domains shown)
VH: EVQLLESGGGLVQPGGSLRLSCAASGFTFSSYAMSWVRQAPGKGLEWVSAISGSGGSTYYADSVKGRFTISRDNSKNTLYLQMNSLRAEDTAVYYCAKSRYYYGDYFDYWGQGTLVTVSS
VL: EIVLTQSPATLSLSPGERATLSCRASQSVSSYLAWYQQKPGQAPRLLIYDASNRATGIPARFSGSGSGTDFTLTISSLEPEDFAVYYCQQYYFWPLTFGGGTKVEIK
notes: full-length human IgG1
B5: C-62 (antibody, V domains shown)
VH: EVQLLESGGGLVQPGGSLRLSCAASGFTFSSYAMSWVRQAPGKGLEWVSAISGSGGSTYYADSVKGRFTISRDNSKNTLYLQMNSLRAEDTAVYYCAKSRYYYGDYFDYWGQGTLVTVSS
VL: EIVMTQSPATLSVSPGERATLSCRASQSVSSNLAWYQQKPGQAPRLLIYGASTRATGIPARFSGSGSGTEFTLTISSLQSEDFAVYYCQQFSNWPLTFGGGTKVEIK
notes: human IgG1

Target: T2, human CD33 (human, UniProt P20138 18-364)
Test: cell-based or functional assay

T2 sequence (P20138 18-364): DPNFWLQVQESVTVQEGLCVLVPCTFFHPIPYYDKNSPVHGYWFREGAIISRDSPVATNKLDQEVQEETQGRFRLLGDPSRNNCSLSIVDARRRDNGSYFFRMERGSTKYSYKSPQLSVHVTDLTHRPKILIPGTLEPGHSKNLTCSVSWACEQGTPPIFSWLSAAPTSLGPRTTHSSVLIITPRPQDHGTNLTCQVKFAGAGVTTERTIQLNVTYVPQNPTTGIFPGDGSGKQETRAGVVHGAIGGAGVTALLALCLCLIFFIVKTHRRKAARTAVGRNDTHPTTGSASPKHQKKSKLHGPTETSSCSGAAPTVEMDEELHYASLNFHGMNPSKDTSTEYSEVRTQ

| Binder | Percent CD33 Surface Expression, DC % CD33 [%] | Percent CD33 Surface Expression, Macrophage % CD33 [%] | Percent CD33 Surface Expression, Monocyte % CD33 [%] |
| --- | --- | --- | --- |
| B1 | 19 | 55.3 | 32.2 |
| B2 | 17 | 51 | 23.8 |
| B3 | 17.9 | 49.1 | 27.6 |
| B4 | 80.9 | 94.4 | 100 |
| B5 | 78.4 |  | 87.4 |

Target: T1, mouse CD33 Fc fusion protein
Test: ForteBio BLI or MSD-SET

| Binder | binding result |
| --- | --- |
| B1 | no binding (tested: 100 nM) |
| B2 | no binding (tested: 100 nM) |
| B3 | no binding (tested: 100 nM) |
| B4 | no binding (tested: 100 nM) |
| B5 | no binding (tested: 100 nM) |

Target: T3, human CD33 Fc fusion protein (human, UniProt P20138 18-259)
T3 construct: also called hCD33-Fc; human CD33/Fc chimera (R&D Systems)
Test: ForteBio BLI or MSD-SET, IgG, avid;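 note: Anti-CD33 IgG affinity by BLI, IgG captured on AHQ sensors with antigen in solution and a one-to-one kinetic fit, or by MSD solution equilibrium titration with quadratic fit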

T3 sequence (P20138 18-259 limits assumed): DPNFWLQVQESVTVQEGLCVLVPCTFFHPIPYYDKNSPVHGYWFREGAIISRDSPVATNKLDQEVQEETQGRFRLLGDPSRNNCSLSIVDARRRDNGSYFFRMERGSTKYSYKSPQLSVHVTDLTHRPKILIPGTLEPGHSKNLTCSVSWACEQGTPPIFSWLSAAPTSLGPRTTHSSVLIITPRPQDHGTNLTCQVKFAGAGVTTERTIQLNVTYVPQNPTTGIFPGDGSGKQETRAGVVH

| Binder | Kd [nM] |
| --- | --- |
| B1 | 0.409 |
| B2 | 1.19 |
| B3 | 1.28 |
| B4 | 2.53 |
| B5 | 4.07 |

Target: T2, human CD33
Test: flow cytometry, human primary T cells;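 note: binding of anti-CD33 antibodies at 10 ug/ml to human primary T cells, 1 h on ice, detected with PE-labelled secondary antibody, read as flow cytometry MFI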
Protocol: Initial characterization of CD33 antibodies involved determining their ability to bind CD33 expressed on a CHO cell line, on human primary monocytes, human primary macrophages, human primary dendritic cells, and on human primary T cells. Cells were harvested, plated at 10⁶/ml in a 96 well plate, and incubated in 100 ul PBS containing 2% FBS, 2 mM EDTA and 10 ug/ml Mab and Fc blocking reagent for 1 hour in ice. Cells were washed twice and incubated in 100 ul PBS containing 2% FBS, 2 mM EDTA and 5 ug/ml PE-conjugated secondary antibody for 30 minutes on ice. Cells were washed twice in cold PBS and analyze by flow cytometry on a BD FACS Canto. Data analysis and calculation of MFI values was performed with FlowJo (TreeStar) software version 10.0.7.

| Binder | T cell MFI |
| --- | --- |
| B1 | 213 |
| B2 | 209 |
| B3 | 267 |
| B4 | 461 |
| B5 | 96.4 |

Target: T2, human CD33
Test: flow cytometry, human primary monocytes;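 note: binding of anti-CD33 antibodies at 10 ug/ml to human primary monocytes, 1 h on ice, detected by PE-labelled secondary antibody, flow cytometry readout as mean fluorescence intensity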
Design: reference not given here

| Binder | Monocyte MFI |
| --- | --- |
| B1 | 203 |
| B2 | 151 |
| B3 | 166 |
| B4 | 177 |
| B5 | 197 |

Target: T2, human CD33
Test: flow cytometry, human primary macrophages;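 note: binding of CD33 antibodies at 10 µg/ml to human primary macrophages, 1 h on ice, detected with PE-labelled secondary antibody by flow cytometry, reported as MFI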

| Binder | Macrophage MFI |
| --- | --- |
| B1 | 952 |
| B2 | 831 |
| B3 | 904 |
| B4 | 924 |
| B5 | 520 |

Target: T2, human CD33
Test: flow cytometry, human primary dendritic cells;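 note: binding of anti-CD33 antibodies (10 ug/ml, 1 h on ice) to human primary dendritic cells, detected with a PE-labelled secondary antibody, reported as flow cytometry MFI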

| Binder | DC MFI |
| --- | --- |
| B1 | 1840 |
| B2 | 1420 |
| B3 | 1740 |
| B4 | 1440 |
| B5 | 1660 |

Target: T4, human monomeric His tagged CD33 protein (human, UniProt P20138 18-259)
T4 construct: also called hCD33-His
Test: ForteBio BLI or MSD-SET, IgG, monomeric antigen;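 note: BLI: antibodies captured on AHQ sensors, 100 nM antigen association 5 min, dissociation 5 min, 1:1 fit. MSD-SET: antigen fixed at 50 pM, antibody titrated, quadratic fit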

T4 sequence (P20138 18-259 limits assumed): as above

| Binder | Kd [nM] |
| --- | --- |
| B1 | 2.72 |
| B2 | 5.33 |
| B3 | 5.25 |
| B4 | 9.69 |
| B5 | 23.6 |

Target: T3, human CD33 Fc fusion protein
Test: RBC adhesion to plate-bound CD33-Fc; antibody 0.5 ug/ml;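 note: Plate-coated CD33-Fc preincubated 1 h with antibody, then red blood cells added for 1 h at room temperature, adherent cells lysed and quantified via peroxidase activity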

| Binder | Percent RBC Binding to CD33 [%] |
| --- | --- |
| B1 | 11 |
| B2 | 22.9 |
| B3 | 15.6 |
| B4 | 93.2 |
| B5 | 95.7 |

Target: T3, human CD33 Fc fusion protein
Test: RBC adhesion to plate-bound CD33-Fc; antibody 1.0 ug/ml;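 note: red blood cells adhering to plate-coated CD33-Fc after 1 h antibody pretreatment, then 1 h at room temperature, bound cells read as peroxidase activity after lysis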
Protocol: Briefly, 5 ug/ml CD33-Fc was coated overnight at RT in 96 well Immunolon plates, then washed with PBS, blocked for one hour with binding buffer (PBS containing %0.25 BSA 1 mM CaCl₂). CD33 antibodies (0.5 ug/ml or 1.0 ug/ml) or Fabs (25 ug/ml) were bound for one hour at RT with gentle rocking. After removal of unbound antibody, red blood cells were added to each well at a concentration of 3.0×10⁶ cells per ml and incubated at RT for one hour. Unbound RBCs were then carefully washed off 3× with PBS, and water was added to each well for hypotonic lysis of bound RBCs. The plate was transferred to −80° C. for 10 minutes, followed by 37° C. for 15 minutes. Bound RBCs were detected by peroxidase activity, followed by 2N sulfuric acid to stop the reaction.

| Binder | Percent RBC Binding to CD33 [%] |
| --- | --- |
| B1 | 5.6 |
| B2 | 10.7 |
| B3 | 10.3 |
| B4 | 91.5 |
| B5 | 84 |
